Values belong to the binder of their own block, whether it stands above or below them.
Tests used:
Experiment in all cases: cell-based or functional assay
thrombin = thrombin (human, UniProt P00734 328-622)
factor Xa = factor Xa (human, UniProt P00742 41-179; P00742 235-488, limits assumed)
human factor Xa = human factor Xa (human, UniProt P00742 41-179; P00742 235-488, limits assumed)
human thrombin = human thrombin (human, UniProt P00734 328-622)

Sequence of human factor Xa (P00742 41-179 limits assumed, chain 1 of 2): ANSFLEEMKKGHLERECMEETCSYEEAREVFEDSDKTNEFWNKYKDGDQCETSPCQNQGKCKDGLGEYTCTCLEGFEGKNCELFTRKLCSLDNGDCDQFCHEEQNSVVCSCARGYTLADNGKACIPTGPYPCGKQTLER
Sequence of human factor Xa (P00742 235-488 limits assumed, chain 2 of 2): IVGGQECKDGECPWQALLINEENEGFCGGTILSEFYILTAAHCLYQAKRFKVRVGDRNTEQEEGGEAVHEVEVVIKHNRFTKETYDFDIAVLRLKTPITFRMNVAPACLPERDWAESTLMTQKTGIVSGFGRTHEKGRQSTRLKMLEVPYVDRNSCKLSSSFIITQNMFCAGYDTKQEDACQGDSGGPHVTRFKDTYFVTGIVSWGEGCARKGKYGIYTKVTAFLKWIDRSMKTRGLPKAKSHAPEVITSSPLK
Sequence of factor Xa (P00742 41-179 limits assumed, chain 1 of 2): as the sequence (P00742 41-179 limits assumed, chain 1 of 2) above
Sequence of factor Xa (P00742 235-488 limits assumed, chain 2 of 2): as the sequence (P00742 235-488 limits assumed, chain 2 of 2) above

IC50 IIa/UFH; HCA #4 (thrombin): 333 nM
IC50 fXa/UFH; HCA #4 (factor Xa): 18 nM
B1: LEAI.477 (other)
chain: SPVDICTAKPRDIPMNPMCIYRSPEKKATEDEGSEQKIPEATNRRVWELSKANSRFATTFYQHLADSKNDNDNIFLSPLSISTAFAMTKLGACNDTLQQLMEVFKFDTISEKTSDQIHFFFAKLNCRLYRKANKASKLVSANRLFGDKSLTFNETYQDISELVYGAKLQPLDFKENAEQSRAAINKWVSNKTEGRITDVIPSEAINELTVLVLVNTIYFKGLWKSKFSPENTRKELFYKADGESCSASMMYQEGKFRYRRVAEGTQVLELPFKGDDITMVLILPKPEKSLAKVEKELTPEVLQEWLDELEEMMLVVHMPRFRIEDGFSLKEQLQDMGLVDLFSPEKSKLPGIVAEGRDDLYVSDAFHKAFLEVNEEGSEAAASTALEAPGRSLNPNRVTFKANRPFLVFIREVPLNTIIFMGRVANPCVK

IC50 fXa/UFH (HCA #6) (human factor Xa): 40 nM
IC50 IIa/UFH (HCA #6) (human thrombin): 105 nM
B2: LEAQ.514 (other)
chain: SPVDICTAKPRDIPMNPMCIYRSPEKKATEDEGSEQKIPEATNRRVWELSKANSRFATTFYQHLADSKNDNDNIFLSPLSISTAFAMTKLGACNDTLQQLMEVFKFDTISEKTSDQIHFFFAKLNCRLYRKANKASKLVSANRLFGDKSLTFNETYQDISELVYGAKLQPLDFKENAEQSRAAINKWVSNKTEGRITDVIPSEAINELTVLVLVNTIYFKGLWKSKFSPENTRKELFYKADGESCSASMMYQEGKFRYRRVAEGTQVLELPFKGDDITMVLILPKPEKSLAKVEKELTPEVLQEWLDELEEMMLVVHMPRFRIEDGFSLKEQLQDMGLVDLFSPEKSKLPGIVAEGRDDLYVSDAFHKAFLEVNEEGSEAAASTVLEAQGRSLNPNRVTFKANRPFLVFIREVPLNTIIFMGRVANPCVK

IC50 fXa/UFH; HCA #2 (human factor Xa): 45 nM
IC50 IIa/UFH; HCA #2 (human thrombin): 460 nM
B3: 13C.432 (other)
chain: SPVDICTAKPRDIPMNPMCIYRSPEKKATEDEGSEQKIPEATNRRVWELSKANSRFATTFYQHLADSKNDNDNIFLSPLSISTAFAMTKLGACNDTLQQLMEVFKFDTISEKTSDQIHFFFAKLNCRLYRKANKASKLVSANRLFGDKSLTFNETYQDISELVYGAKLQPLDFKENAEQSRAAINKWVSNKTEGRITDVIPSEAINELTVLVLVNTIYFKGLWKSKFSPENTRKELFYKADGESCSASMMYQEGKFRYRRVAEGTQVLELPFKGDDITMVLILPKPEKSLAKVEKELTPEVLQEWLDELEEMMLVVHMPRFRIEDGFSLKEQLQDMGLVDLFSPEKSKLPGIVAEGRDDLYVSDAFHKAFLEVNEEGSEAAASTELEIAGRSLNPNRVTFKANRPFLVFIREVPLNTIIFMGRVANPCVK

IC50 IIa/UFH; HCA #4 (thrombin): > 1000 nM
IC50 fXa/UFH; HCA #4 (factor Xa): 28 nM
B4: LEAI.473 (other)
chain: SPVDICTAKPRDIPMNPMCIYRSPEKKATEDEGSEQKIPEATNRRVWELSKANSRFATTFYQHLADSKNDNDNIFLSPLSISTAFAMTKLGACNDTLQQLMEVFKFDTISEKTSDQIHFFFAKLNCRLYRKANKASKLVSANRLFGDKSLTFNETYQDISELVYGAKLQPLDFKENAEQSRAAINKWVSNKTEGRITDVIPSEAINELTVLVLVNTIYFKGLWKSKFSPENTRKELFYKADGESCSASMMYQEGKFRYRRVAEGTQVLELPFKGDDITMVLILPKPEKSLAKVEKELTPEVLQEWLDELEEMMLVVHMPRFRIEDGFSLKEQLQDMGLVDLFSPEKSKLPGIVAEGRDDLYVSDAFHKAFLEVNEEGSEAAASTALEADGRSLNPNRVTFKANRPFLVFIREVPLNTIIFMGRVANPCVK

IC50 IIa/UFH; HCA #3 (thrombin): 280 nM
IC50 fXa/UFH; HCA #3 (factor Xa): 100 nM
B5: LEAI.479 (other)
chain: SPVDICTAKPRDIPMNPMCIYRSPEKKATEDEGSEQKIPEATNRRVWELSKANSRFATTFYQHLADSKNDNDNIFLSPLSISTAFAMTKLGACNDTLQQLMEVFKFDTISEKTSDQIHFFFAKLNCRLYRKANKASKLVSANRLFGDKSLTFNETYQDISELVYGAKLQPLDFKENAEQSRAAINKWVSNKTEGRITDVIPSEAINELTVLVLVNTIYFKGLWKSKFSPENTRKELFYKADGESCSASMMYQEGKFRYRRVAEGTQVLELPFKGDDITMVLILPKPEKSLAKVEKELTPEVLQEWLDELEEMMLVVHMPRFRIEDGFSLKEQLQDMGLVDLFSPEKSKLPGIVAEGRDDLYVSDAFHKAFLEVNEEGSEAAASTALEAWGRSLNPNRVTFKANRPFLVFIREVPLNTIIFMGRVANPCVK

IC50 IIa/UFH; HCA #3 (thrombin): 220 nM
IC50 fXa/UFH; HCA #3 (factor Xa): 24 nM
B6: LEAI.481 (other)
chain: SPVDICTAKPRDIPMNPMCIYRSPEKKATEDEGSEQKIPEATNRRVWELSKANSRFATTFYQHLADSKNDNDNIFLSPLSISTAFAMTKLGACNDTLQQLMEVFKFDTISEKTSDQIHFFFAKLNCRLYRKANKASKLVSANRLFGDKSLTFNETYQDISELVYGAKLQPLDFKENAEQSRAAINKWVSNKTEGRITDVIPSEAINELTVLVLVNTIYFKGLWKSKFSPENTRKELFYKADGESCSASMMYQEGKFRYRRVAEGTQVLELPFKGDDITMVLILPKPEKSLAKVEKELTPEVLQEWLDELEEMMLVVHMPRFRIEDGFSLKEQLQDMGLVDLFSPEKSKLPGIVAEGRDDLYVSDAFHKAFLEVNEEGSEAAASTALEAGGRSLNPNRVTFKANRPFLVFIREVPLNTIIFMGRVANPCVK

IC50 IIa/UFH; HCA #4 (thrombin): 100 nM
rsd. IIa catG; CA #12; stg1 conc 200 (thrombin): 1%
rsd. IIa hne; CA #12; stg1 conc 200 (thrombin): 79%
rsd. IIa no add; CA #12; stg1 conc 200 (thrombin): 1%
IC50 fXa/UFH; HCA #4 (factor Xa): 12 nM
rsd. Xa catG; CA #12; stg1 conc 200 (factor Xa): 1%
rsd. Xa hne; CA #12; stg1 conc 200 (factor Xa): 1%
rsd. Xa no add; CA #12; stg1 conc 200 (factor Xa): 1%
B7: LEAI.478 (other)
chain: SPVDICTAKPRDIPMNPMCIYRSPEKKATEDEGSEQKIPEATNRRVWELSKANSRFATTFYQHLADSKNDNDNIFLSPLSISTAFAMTKLGACNDTLQQLMEVFKFDTISEKTSDQIHFFFAKLNCRLYRKANKASKLVSANRLFGDKSLTFNETYQDISELVYGAKLQPLDFKENAEQSRAAINKWVSNKTEGRITDVIPSEAINELTVLVLVNTIYFKGLWKSKFSPENTRKELFYKADGESCSASMMYQEGKFRYRRVAEGTQVLELPFKGDDITMVLILPKPEKSLAKVEKELTPEVLQEWLDELEEMMLVVHMPRFRIEDGFSLKEQLQDMGLVDLFSPEKSKLPGIVAEGRDDLYVSDAFHKAFLEVNEEGSEAAASTALEASGRSLNPNRVTFKANRPFLVFIREVPLNTIIFMGRVANPCVK

IC50 IIa/UFH; HCA #2 (thrombin): 37 nM
IC50 IIa/UFH; HCA #3 (thrombin): 35 nM
rsd. IIa catG; CA #12; stg1 conc 200 (thrombin): 0%
rsd. IIa catG; CA #14; stg1 conc 200 (thrombin): 1%
rsd. IIa catG; CA #15; stg1 conc 200 (thrombin): 1%
rsd. IIa hne; CA #12; stg1 conc 200 (thrombin): 62%
rsd. IIa hne; CA #14; stg1 conc 200 (thrombin): 41%
rsd. IIa hne; CA #15; stg1 conc 200 (thrombin): 65%
rsd. IIa no add; CA #12; stg1 conc 200 (thrombin): 0%
rsd. IIa no add; CA #14; stg1 conc 200 (thrombin): 2%
rsd. IIa no add; CA #15; stg1 conc 200 (thrombin): 2%
IC50 fXa/UFH; HCA #2 (factor Xa): 275 nM
IC50 fXa/UFH; HCA #3 (factor Xa): 320 nM
rsd. Xa catG; CA #12; stg1 conc 200 (factor Xa): 48%
rsd. Xa catG; CA #14; stg1 conc 200 (factor Xa): 59%
rsd. Xa catG; CA #15; stg1 conc 200 (factor Xa): 82%
rsd. Xa hne; CA #12; stg1 conc 200 (factor Xa): 86%
rsd. Xa hne; CA #14; stg1 conc 200 (factor Xa): 100%
rsd. Xa hne; CA #15; stg1 conc 200 (factor Xa): 103%
rsd. Xa no add; CA #12; stg1 conc 200 (factor Xa): 45%
rsd. Xa no add; CA #14; stg1 conc 200 (factor Xa): 44%
rsd. Xa no add; CA #15; stg1 conc 200 (factor Xa): 57%
B8: LEAI.471 (other)
chain: SPVDICTAKPRDIPMNPMCIYRSPEKKATEDEGSEQKIPEATNRRVWELSKANSRFATTFYQHLADSKNDNDNIFLSPLSISTAFAMTKLGACNDTLQQLMEVFKFDTISEKTSDQIHFFFAKLNCRLYRKANKASKLVSANRLFGDKSLTFNETYQDISELVYGAKLQPLDFKENAEQSRAAINKWVSNKTEGRITDVIPSEAINELTVLVLVNTIYFKGLWKSKFSPENTRKELFYKADGESCSASMMYQEGKFRYRRVAEGTQVLELPFKGDDITMVLILPKPEKSLAKVEKELTPEVLQEWLDELEEMMLVVHMPRFRIEDGFSLKEQLQDMGLVDLFSPEKSKLPGIVAEGRDDLYVSDAFHKAFLEVNEEGSEAAASTALEARGRSLNPNRVTFKANRPFLVFIREVPLNTIIFMGRVANPCVK

IC50 IIa/UFH; HCA #2 (thrombin): 45 nM
IC50 fXa/UFH; HCA #2 (factor Xa): 37 nM
B9: LEAI (other)
chain: SPVDICTAKPRDIPMNPMCIYRSPEKKATEDEGSEQKIPEATNRRVWELSKANSRFATTFYQHLADSKNDNDNIFLSPLSISTAFAMTKLGACNDTLQQLMEVFKFDTISEKTSDQIHFFFAKLNCRLYRKANKASKLVSANRLFGDKSLTFNETYQDISELVYGAKLQPLDFKENAEQSRAAINKWVSNKTEGRITDVIPSEAINELTVLVLVNTIYFKGLWKSKFSPENTRKELFYKADGESCSASMMYQEGKFRYRRVAEGTQVLELPFKGDDITMVLILPKPEKSLAKVEKELTPEVLQEWLDELEEMMLVVHMPRFRIEDGFSLKEQLQDMGLVDLFSPEKSKLPGIVAEGRDDLYVSDAFHKAFLEVNEEGSEAAASTALEAIGRSLNPNRVTFKANRPFLVFIREVPLNTIIFMGRVANPCVK

IC50 fXa/UFH (HCA #6) (human factor Xa): 25 nM
IC50 IIa/UFH (HCA #6) (human thrombin): 100 nM
B10: LEAQ.521 (other)
chain: SPVDICTAKPRDIPMNPMCIYRSPEKKATEDEGSEQKIPEATNRRVWELSKANSRFATTFYQHLADSKNDNDNIFLSPLSISTAFAMTKLGACNDTLQQLMEVFKFDTISEKTSDQIHFFFAKLNCRLYRKANKASKLVSANRLFGDKSLTFNETYQDISELVYGAKLQPLDFKENAEQSRAAINKWVSNKTEGRITDVIPSEAINELTVLVLVNTIYFKGLWKSKFSPENTRKELFYKADGESCSASMMYQEGKFRYRRVAEGTQVLELPFKGDDITMVLILPKPEKSLAKVEKELTPEVLQEWLDELEEMMLVVHMPRFRIEDGFSLKEQLQDMGLVDLFSPEKSKLPGIVAEGRDDLYVSDAFHKAFLEVNEEGSEAAASTHLEAQGRSLNPNRVTFKANRPFLVFIREVPLNTIIFMGRVANPCVK
